How the values were obtained:
[1] = biological target: T1, Human PD-1 protein (ACRObiosystems, Cat #PD1-H5221) (human, UniProt Q15116 25-167); assay: ELISA, human PD-1 coated at 25 ng/well, detection with HRP goat anti-human F(ab')2, OD450-620 [left panel]
T1 construct: Bought soluble protein
Procedure: (§1) An ELISA assay was performed for determination of the relative binding capacity of the fusion proteins to human PD-1.
(§2) Human PD-1 protein (ACRObiosystems, Cat #PD1-H5221) was immobilized onto 96-well plates in PBS (Hyclone, Cat #SH30256.01) by incubation overnight at 4° C., 25 ng/well. The plates were then blocked by incubation with 1% BSA in PBS for one hour at 37° C. After blocking, the plates were washed three times with PBST (PBS containing 0.05% Tween 20). […] After binding, the plates were washed three times with PBST, incubated for one hour at 37° C. with peroxidase-labeled Goat anti-human F(ab′)² antibody (Jackson Immuno Research, Cat #109-035-097) diluted 1/20,000 in binding buffer, washed again, developed with TMB (ThermoFisher, Cat #34028) for 15 minutes, and then stopped with 1M H₂SO₄. Each plate well contained 50 μL of solution at each step.

[2] = biological target: T1, Human PD-1 protein (ACRObiosystems, Cat …); assay: ELISA, human PD-1 coated at 25 ng/well, detection with HRP goat anti-human F(ab')2, OD450-620 [right panel]
Procedure: as §1, §2

Human TGFβ1 protein = biological target: T2, Human TGFβ1 protein (human, UniProt P01137 279-390); assay: ELISA, human TGFβ1 coated at 10 ng/well, detection with HRP goat anti-human Fc, OD450-620 [left panel]
T2 construct: also called TGFβ1 protein (Sino, 10804-HNAC); Novoprotein Inc., Cat #CA59
Procedure: The plates were then blocked by incubation with 1% BSA in PBS for one hour at 37° C. After blocking, the plates were washed three times with PBST (PBS containing 0.05% Tween 20). […] After binding, the plates were washed three times with PBST, incubated for one hour at 37° C. with peroxidase-labeled Goat anti-human Fc antibody (Jackson Immuno Research, Cat #109-035-098) diluted 1/20,000 in binding buffer, washed again, developed with TMB (ThermoFisher Cat #34028) for 15 minutes, and then stopped with 1M H₂SO₄. The absorbance at 450 nm-620 nm was determined.

T1 sequence (Q15116 25-167 limits assumed): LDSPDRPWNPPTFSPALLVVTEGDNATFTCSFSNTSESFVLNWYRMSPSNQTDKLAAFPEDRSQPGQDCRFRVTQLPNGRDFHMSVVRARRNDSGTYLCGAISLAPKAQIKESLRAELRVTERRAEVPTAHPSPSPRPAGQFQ
T2 sequence (P01137 279-390 limits assumed): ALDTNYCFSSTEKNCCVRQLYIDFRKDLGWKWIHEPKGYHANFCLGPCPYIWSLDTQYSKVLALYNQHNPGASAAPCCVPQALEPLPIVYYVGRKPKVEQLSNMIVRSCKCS

Row | Binder | EC50 [1] | EC50 [2] | EC50 (Human TGFβ1 protein)
1 | anti-PD-1 antibody 21F12-1F6 (antibody, human IgG1, kappa, L234A L235A, V domains shown, Positive control in the PD-1 ELISA; also called anti-human PD-1; antibody 21F12-1F6 in PCT/CN2019/087287) VH: QMQLVQSGAEVKKPGASVKLSCKASGYIFQSYYIHWVRQAPGQGLEWVGVINPSGGSTTYAQKFQGRVTMTRDTSISTAYMELSRLRSDDTVVYYCARGSYSSGWDYYYYYGMDVWGKGTLVTVSS VL: not shown | 0.0957 nM | 0.0995 nM | –
2 | human TGFβR2-hFc (ACRObiosystems, Cat #TG2-H5252) (Fc fusion, UniProt P37173 23-159, looked up, Bought Fc fusion; also called positive control; not shown: human Fc of the bought fusion) TIPPHVQKSVNNDMIVTDNNGAVKFPQLCKFCDVRFSTCDNQKSCMSNCSITSICEKPQEVCVAVWRKNDENITLETVCHDPKLPYHDFILEDAASPKCIMKEKKKPGETFFMCSCSSDECNDNIIFSEEYNTSNPD | – | – | 0.0652 nM

From US20210115142A1 (NANJING LEADS BIOLABS, published 2021)
